The test deals with acetylcholine receptor. Briefly: SPR, AchR on chip, peptide 10 uM. On the technique in general: Surface plasmon resonance follows binding to a sensor surface in real time, without labels.

For the molecule RLRLK [5mer-543], the Binding affinity (RU) came to 65 RU.

The molecule KRLYR [5mer-239] returned a Binding affinity (RU) of 61 RU.

As to KVVLK [5mer-546], the Binding affinity (RU) turned out to be 65 RU.

Turning to KQFSR [5mer-526], the Binding affinity (RU) was 54 RU.

For the molecule RWRRR [5mer-530], the Binding affinity (RU) is 80 RU.

Turning to KVQYK [5mer-218], the Binding affinity (RU) came out at 80 RU.

The molecule KRILR [5mer-220] returned a Binding affinity (RU) of 81 RU.

With KSVQR [5mer-527], the Binding affinity (RU) came out at 70 RU.

On to KRYTR [5mer-542], for which the Binding affinity (RU) worked out at 85 RU.

With RLQRR [5mer-224], the Binding affinity (RU) turned out to be 67 RU.

For the molecule KLQRR [5mer-217], the Binding affinity (RU) stood at 72 RU.

On to RQRSK [5mer-245], for which the Binding affinity (RU) turned out to be 62 RU.

As to KWLLR [5mer-222], the Binding affinity (RU) worked out at 86 RU.

For KSFTR [5mer-246], the Binding affinity (RU) turned out to be 60 RU.

Molecule KRFRK [5mer-521] registered a Binding affinity (RU) of 78 RU.

On to KSLLR [5mer-535], for which the Binding affinity (RU) is 70 RU.

For KRVLK [5mer-3], the Binding affinity (RU) worked out at 66 RU.

Molecule RLVYK [5mer-533] displayed a Binding affinity (RU) of 84 RU.

The molecule RVQCK [5mer-1] showed a Binding affinity (RU) of 54 RU.

With RVLLK [5mer-520], the Binding affinity (RU) came out at 86 RU.

KQQQR [5mer-538] yielded a Binding affinity (RU) of 72 RU.

As for RGLRK [5mer-237], the Binding affinity (RU) is 77 RU.

As to KRRCK [5mer-236], the Binding affinity (RU) is 81 RU.

In the case of KWQTR [5mer-516], the Binding affinity (RU) turned out to be 83 RU.

In turn, KRQQK [5mer-225] had a Binding affinity (RU) of 51 RU.

The molecule KWYTR [5mer-232] returned a Binding affinity (RU) of 71 RU.

RGYTK [5mer-242] returned a Binding affinity (RU) of 64 RU.

In the case of RRILK [5mer-302], the Binding affinity (RU) is 70 RU.

KQICK [5mer-532] had a Binding affinity (RU) of 75 RU.

Turning to RVVTR [5mer-539], the Binding affinity (RU) amounted to 70 RU.

Turning to RLYSK [5mer-519], the Binding affinity (RU) came out at 72 RU.

Turning to RVYYK [5mer-233], the Binding affinity (RU) came out at 84 RU.

For the molecule KRFLK [5mer-228], the Binding affinity (RU) stood at 53 RU.

For KWRYR [5mer-240], the Binding affinity (RU) came to 51 RU.

In the case of KRQSR [5mer-531], the Binding affinity (RU) came out at 65 RU.

Molecule RQYCR [5mer-234] registered a Binding affinity (RU) of 62 RU.

Molecule RLRLR [5mer-537] displayed a Binding affinity (RU) of 59 RU.

On to KGYSK [5mer-235], for which the Binding affinity (RU) was 70 RU.

With RQYRR [5mer-215], the Binding affinity (RU) was 79 RU.

For the molecule KGLTR [5mer-229], the Binding affinity (RU) is 84 RU.

With KQVLK [5mer-238], the Binding affinity (RU) was determined as 58 RU.

In turn, RRYTR [5mer-226] yielded a Binding affinity (RU) of 60 RU.

KWIRK [5mer-301]: the Binding affinity (RU) was 64 RU.

Consider KGLLK [5mer-231], for which the Binding affinity (RU) is 60 RU.

Turning to KQRYK [5mer-525], the Binding affinity (RU) was 51 RU.

RLVYR [5mer-522]: the Binding affinity (RU) came to 78 RU.

The molecule KVFLK [5mer-541] yielded a Binding affinity (RU) of 80 RU.

In the case of KQQCK [5mer-214], the Binding affinity (RU) is 79 RU.

Take KRISR [5mer-2]: the Binding affinity (RU) amounted to 80 RU.

KQVRK [5mer-223] registered a Binding affinity (RU) of 61 RU.

Molecule RLQLR [5mer-544] came in with a Binding affinity (RU) of 63 RU.

Regarding RRICR [5mer-524], the Binding affinity (RU) is 83 RU.

As for KGQYR [5mer-545], the Binding affinity (RU) came out at 80 RU.

The molecule KQYTR [5mer-219] gave a Binding affinity (RU) of 55 RU.

RRQQR [5mer-227] displayed a Binding affinity (RU) of 84 RU.

Molecule KQFQK [5mer-523] came in with a Binding affinity (RU) of 84 RU.

RVLLR [5mer-528]: the Binding affinity (RU) was 50 RU.

Consider KLLLK [5mer-514], for which the Binding affinity (RU) is 52 RU.

The molecule RGQRK [5mer-515] gave a Binding affinity (RU) of 56 RU.

Molecule RLITK [5mer-536] returned a Binding affinity (RU) of 78 RU.

In the case of KWVRR [5mer-216], the Binding affinity (RU) turned out to be 56 RU.

In turn, KSVSK [5mer-244] registered a Binding affinity (RU) of 78 RU.

The molecule KVRCR [5mer-241] returned a Binding affinity (RU) of 51 RU.

Regarding KGYTR [5mer-517], the Binding affinity (RU) is 70 RU.

On to KLLSK [5mer-243], for which the Binding affinity (RU) is 51 RU.

RQFYR [5mer-540] had a Binding affinity (RU) of 74 RU.

On to RVQSR [5mer-529], for which the Binding affinity (RU) came out at 84 RU.

Molecule RVYYR [5mer-518] had a Binding affinity (RU) of 87 RU.

In the case of KVLCR [5mer-230], the Binding affinity (RU) was found to be 67 RU.

Regarding RWYYK [5mer-513], the Binding affinity (RU) turned out to be 83 RU.

The molecule RGRTR [5mer-221] yielded a Binding affinity (RU) of 58 RU.

On to RRQLR [5mer-534], for which the Binding affinity (RU) turned out to be 50 RU.

(Values after patent publication US20250011363A1, “OPTIMIZED SHORTENED PEPTIDE THAT BINDS TO ACETYLCHOLINE RECEPTOR, AND USE THEREOF” (SKINMED CO., LTD., priority 2021, published 2025).)
